Key:
Format in all cases: cell-based
[1] = test system: minimal promoter linked to multiple copies of CRE; assay: CRE-Luc reporter co-transfection assay with the CREAP gene family; conditions: cotransfection, relative to empty pCMV-SPORT6 vector
Description: The entire amino acid sequence for CREAP1 was used in a BLASTP search of a public NCBI database. Initially two public domain cDNAs (XM—117201 and FLJ00364) were identified that have significant homology to the CREAP1 coding region. The nucleotide sequence of XM—117201 was used in a BLASTN search (Altschul S. F. et al., Nucleic Acids Res. 25:3389-3402 (1997)) of a proprietary cDNA library EST database and 4 clones were identified that represent XM—117201 public sequence. All 4 clones were functionally tested upon co-transfection with the CRE-Luc and IL-8p-Luc reporters initially found to be induced by CREAP using methods similar to those disclosed above. Briefly, trypsinized HeLa cells are resuspended in complete growth media at 6×10^4 cells/ml and distributed into white 96-well plates (Costar) in the volume of 100 μl per well. Cells are left overnight in a tissue culture incubator at 37° C. and 5% CO2. pGL3B-IL-8p-Luc reporter plasmid or CRE-Luc reporter (BD Biosciences) as well as tested cDNAs are resuspended in OptiMEM I low serum media (GIBCO BRL) at 25 ng/ml. The reporter plasmids and cDNAs are then distributed into 96-well clean PCR plates (ABGene) at 4 μl/well and 3 μl/well respectively. Mixture containing Fugene 6 reagent (Roche Applied Bioscience) at 1.5 μl per transfection and pRL-SV40 (Promega) plasmid 20 ng per transfection is added in the volume of 10 μl per well of the 96-well PCR plate containing prediluted cDNAs. […]
The activity of firefly and Renilla luciferase is measured using the DualGlo Luciferase Assay System (Promega) following the protocol supplied by the manufacturer. Briefly, 115 μl of freshly reconstituted luciferase reagent is added to each well of the 96-well tissue culture plates with a Multidrop 384 and, after 15 minutes incubation, luminescence is read on a LUMINOSKAN Ascent Luminometer (Thermo Labsystems) with a 400 msec integration time. Subsequently, 115 μl of Stop-and-Glo reagent is added to each well of the 96-well tissue culture and, after 15 minutes incubation, luminescence is read on a LUMINOSKAN Ascent Luminometer with a 200 msec integration time. The activity of each tested cDNA is measured as a ratio of the corresponding firefly and Renilla luciferase activities.
To investigate this, the ability of CREAP2 and CREAP3 to activate gene expression driven by the IL-8 promoter and a CRE-dependent promoter was tested in co-transfection assays as disclosed above. Briefly, the levels of expression of a luciferase reporter driven by either the IL-8 promoter or a minimal promoter linked to 4 copies of CRE were determined after cotransfection with either an empty pCMV-SPORT6 expression vector or with the same vector carrying a cDNA for CREAP1, CREAP2 or CREAP3. […]

[2] = test system: CRE-like element of IL-8 promoter (pCREL-Luc); assay: pCREL-Luc reporter (concatamerized CRE-like site) assay; conditions: minimal promoter carrying concatamerized CRE-like site; data not shown
Description: The pIL-8Luc reporter was constructed by insertion of the −1491 to +43 region of the human IL-8 gene into pGL3Basic vector (Promega, Inc). PCR was used to generate a wild type minimal IL-8 promoter as well as point mutants. Mutations in AP-1, C/EBP, NF-κB were as described by Wu et al. (Wu et al. J. Biol. Chem., 272:2396-2403 (1997)). The sequence of a putative CRE-like site TGACATAA was mutated to TCGATCAA. Promoter constructs carrying 6 concatamerised copies of CRE-like response element (pCREL-Luc) or 5 copies of CRE-like element TGACACAA found in human PEPCK and CAPL promoters (pCREL2-Luc) were prepared by ligating PCR amplified sequences into pTAL-Luc (BD Biosciences). All techniques were performed using conventional methods.
In order to determine if the “CRE-like element” was directly responsive to CREAP1 or MAP3K11, the ability of both genes to activate a minimal promoter carrying concatamerized CRE-like site (pCREL-Luc) was examined. In addition, we studied the effect of PMA known inducer of AP-1.

GAL4-CREB fusion protein = assay: GAL4-CREB activation assay in HLR cell line; conditions: HLR cell line with integrated pFR-Luc reporter, normalized to pCMV-BD vector
Procedure: To determine if CREAP proteins can directly activate CREB1 protein, the expression constructs of CREAP1, CREAP2 and CREAP3 were transfected individually or with GAL4-CREB plasmid (Stratagene) into HLR cell line (Stratagene) carrying genomic DNA integrated copies of pFR-Luc reporter. Briefly, HLR cells were maintained per manufacturer's instructions. Selected plasmids and either empty vector (pCMV-BD) or GAL4-CREB plasmid were transfected at 75 ng/well using Fugene6 transfection reagent (Roche) as described above. As a positive control pFC-PKA an expression construct encoding catalytic subunit of protein kinase A (Stratagene) was also co-trasfected with GAL4-CREB. Fold of activation was compared to the reporter's activity measured in the cells transfected with empty vector.
The ability of full length CREAP1, CREAP2 and CREAP3 to induce the activity of GAL4-CREB fusion protein (Stratagene) was tested. The data presented are normalized to the value seen with pCMV-BD vector. […] Note the fold induction obtained with positive control is lower when compared to the data from Table 6 when all the plasmids including the reporter were transiently transfected.

B1: CREAP1: human CRE activating protein 1, 650 amino acids, SEQ ID NO 2; expressed from pCMVSPORT-CREAP1 (protein)
chain: MATSNNPRKFSEKIALHNQKQAEETAAFEEVMKDLSLTRAARLQLQKSQYLQLGPSRGQYYGGSLPNVNQIGSGTMDLPFQPSGFLGEALAAAPVSLTPFQSSGLDTSRTTRHHGLVDRVYRERGRLGSPHRRPLSVDKHGRQADSCPYGTMYLSPPADTSWRRTNSDSALHQSTMTPTQPESFSSGSQDVHQKRVLLLTVPGMEETTSEADKNLSKQAWDTKKTGSRPKSCEVPGINIFPSADQENTTALIPATHNTGGSLPDLTNIHFPSPLPTPLDPEEPTFPALSSSSSTGNLAANLTHLGIGGAGQGMSTPGSSPQHRPAGVSPLSLSTEARRQQASPTLSPLSPITQAVAMDALSLEQQLPYAFFTQAGSQQPPPQPQPPPPPPPASQQPPPPPPPQAPVRLPPGGPLLPSASLTRGPQPPPLAVTVPSSLPQSPPENPGQPSMGIDIASAPALQQYRTSAGSPANQSPTSPVSNQGFSPGSSPQHTSTLGSVFGDAYYEQQMAARQANALSHQLEQFNMMENAISSSSLYSPGSTLNYSQAAMMGLTGSHGSLPDSQQLGYASHSGIPNIILTVTGESPPSLSKELTSSLAGVGDVSFDSDSQFPLDELKIDPLTLDGLHMLNDPDMVLADPATEDTFRMDRL
modifications: human
CRE: level of expression of luciferase relative to empty vector [1]: 28.6 | activation of pCREL-Luc [2]: strongly activated | Fold Induction (GAL4-CREB fusion protein): 6.122
